Laboratory results as given in the supplement of paper PMC10724198.
± gives the standard deviation of the averaged measurements.

Tests used:
Saccharomyces cerevisiae [1] = test: protein stability index of tFT-peptide fusion (C-terminal peptide) (PSI (0-1 scale)); higher = more stable (slower turnover)
Experimental: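 MPS profiling in S. cerevisiae of the tFT-X12 degron library: putative degron peptides plus stable controls, 12 aa, fused to the C-terminus of a sfGFP-mCherry timer. Cells are FACS-sorted into 8 mCherry/sfGFP bins and deep-sequenced. PSI runs from 0 (unstable) to 1 (stable). Backgrounds are wild type, das1Δ and doa10Δ at 30 °C, and wild type, das1Δ, cdc34-1 and cdc53-1 at 37 °C; 2-3 technical replicates each.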

Saccharomyces cerevisiae [2] = test: as above; details: genetic background: wild type; temperature: 30 C
[3] = genetic background: cdc34-1, temperature: 37 C
[4] = genetic background: cdc53-1, temperature: 37 C
[5] = genetic background: das1 deletion, temperature: 30 C
[6] = genetic background: das1 deletion, temperature: 37 C
[7] = genetic background: doa10 deletion, temperature: 30 C
[8] = genetic background: wild type, temperature: 30 C
[9] = genetic background: wild type, temperature: 37 C
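Also: PSI is a weighted mean of sequencing reads over stability bins, variants kept only with over 10 reads, mCherry proximal and sfGFP distal, peptide attached via GGGS linker.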

| Sequence | protein stability index (Saccharomyces cerevisiae [1]; [3]) | protein stability index (Saccharomyces cerevisiae [1]; [4]) | protein stability index (Saccharomyces cerevisiae [1]; [5]) | protein stability index (Saccharomyces cerevisiae [1]; [6]) | protein stability index (Saccharomyces cerevisiae [1]; [7]) | protein stability index (Saccharomyces cerevisiae [1]; [8]) | protein stability index (Saccharomyces cerevisiae [1]; [9]) | protein stability index (Saccharomyces cerevisiae [2]) |
| --- | --- | --- | --- | --- | --- | --- | --- | --- |
| VIRSIVSAYMIC | 0.552 ± 0.043 | 0.649 ± 0.013 | 0.563 ± 0.013 | 0.6726 ± 0.0028 | 0.255 ± 0.0033 | 0.248 ± 0.02 | 0.334 ± 0.037 | 0.293 ± 0.051 |
| VISGFVLVFRVR | 0.509 ± 0.0038 | 0.543 ± 0.029 | 0.356 ± 0.022 | 0.591 ± 0.066 | 0.379 ± 0.026 | 0.344 ± 0.032 | 0.566 ± 0.035 | 0.441 ± 0.028 |
| VKGYISLLLVLI | 0.269 ± 0.01 | 0.332 ± 0.012 | 0.264 ± 0.04 | 0.419 ± 0.0071 | 0.289 ± 0.0043 | 0.259 ± 0.014 | 0.365 ± 0.011 | 0.345 ± 0.013 |
| VLAARVVLLRCR | 0.207 ± 0.0095 | 0.216 ± 0.033 | 0.199 ± 0.031 | 0.335 ± 0.0052 | 0.179 ± 0.0064 | 0.195 ± 0.028 | 0.3113 ± 0.001 | 0.2612 ± 0.0024 |
| VLCFTSAYHRLV | 0.662 ± 0.017 | 0.739 ± 0.015 | 0.631 ± 0.0098 | 0.724 ± 0.014 | 0.206 ± 0.014 | 0.262 ± 0.019 | 0.5171 ± 0.0028 | 0.425 ± 0.049 |
| VLFLLLFVSRVA | 0.2684 ± 0.0016 | 0.398 ± 0.017 | 0.259 ± 0.035 | 0.453 ± 0.016 | 0.203 ± 0.012 | 0.224 ± 0.03 | 0.381 ± 0.042 | 0.3312 ± 0.0014 |
| VLLCFFLGIVGF | 0.36 ± 0.045 | 0.487 ± 0.035 | 0.322 ± 0.024 | 0.488 ± 0.011 | 0.296 ± 0.0087 | 0.299 ± 0.012 | 0.489 ± 0.027 | 0.396 ± 0.045 |
| VLLSFVFCGWVR | 0.458 ± 0.014 | 0.4842 ± 0.0018 | 0.345 ± 0.027 | 0.516 ± 0.0096 | 0.326 ± 0.013 | 0.349 ± 0.025 | 0.4963 ± 0.0042 | 0.442 ± 0.019 |
| VLLVSVFVATLL | 0.124 ± 0.013 | 0.256 ± 0.0095 | 0.143 ± 0.033 | 0.334 ± 0.0086 | 0.113 ± 0.0087 | 0.135 ± 0.022 | 0.284 ± 0.0077 | 0.21 ± 0.012 |
| VLVVASLRFSFF | 0.207 ± 0.054 | 0.34 ± 0.036 | 0.197 ± 0.029 | 0.40083 ± 0.00033 | 0.173 ± 0.019 | 0.2 ± 0.014 | 0.38 ± 0.0063 | 0.249 ± 0.017 |
| VLVVRVLLSDLV | 0.178 ± 0.02 | 0.255 ± 0.021 | 0.18 ± 0.028 | 0.36571 ± 8.9e-05 | 0.157 ± 0.012 | 0.17 ± 0.012 | 0.338 ± 0.01 | 0.262 ± 0.0089 |
| VLVVWLGICFGY | 0.166 ± 0.014 | 0.201 ± 0.046 | 0.191 ± 0.033 | 0.37 ± 0.0092 | 0.187 ± 0.0077 | 0.201 ± 0.016 | 0.299 ± 0.0044 | 0.259 ± 0.011 |
| VMYRGVRISWFL | 0.576 ± 0.036 | 0.582 ± 0.008 | 0.424 ± 0.021 | 0.504 ± 0.014 | 0.343 ± 0.04 | 0.354 ± 0.036 | 0.449 ± 0.0086 | 0.38459 ± 6.1e-05 |
| VNILFCLFFLLV | 0.449 ± 0.02 | 0.554 ± 0.027 | 0.419 ± 0.021 | 0.564 ± 0.023 | 0.392 ± 0.025 | 0.36 ± 0.0062 | 0.4772 ± 0.0041 | 0.412 ± 0.013 |
| VPQMLVSVCLSN | 0.301 ± 0.014 | 0.376 ± 0.045 | 0.287 ± 0.032 | 0.423 ± 0.021 | 0.219 ± 0.014 | 0.26 ± 0.029 | 0.392 ± 0.033 | 0.348 ± 0.011 |
| VPQQWFAETGRC | 0.72 ± 0.031 | 0.763 ± 0.036 | 0.668 ± 0.026 | 0.7455 ± 0.0051 | 0.657 ± 0.038 | 0.662 ± 0.028 | 0.742 ± 0.014 | 0.745 ± 0.019 |
| VRFPVFFIILFL | 0.0864 ± 0.024 | 0.0743 ± 0.0032 | 0.15 ± 0.029 | 0.235 ± 0.017 | 0.241 ± 0.014 | 0.142 ± 0.029 | 0.202 ± 0.0029 | 0.239 ± 0.018 |
| VRGSPNVMWKSQ | 0.675 ± 0.028 | 0.778 ± 0.01 | 0.647 ± 0.028 | 0.733 ± 0.028 | 0.194 ± 0.0042 | 0.238 ± 0.022 | 0.508 ± 0.033 | 0.398 ± 0.035 |
| VRLHIAMWLRRC | 0.299 ± 0.02 | 0.271 ± 0.022 | 0.316 ± 0.027 | 0.414 ± 0.007 | 0.138 ± 0.015 | 0.0999 ± 0.025 | 0.18975 ± 1.6e-05 | 0.14 ± 0.027 |
| VRNKFSYVLRLN | 0.488 ± 0.024 | 0.678 ± 0.014 | 0.615 ± 0.016 | 0.747 ± 0.0094 | 0.0804 ± 0.019 | 0.11 ± 0.029 | 0.138 ± 0.037 | 0.179 ± 0.016 |
